Source: publication PMC9733406 (ACS nano, 2022)
Residues, ends and D or L forms follow the SMILES beside them.

Assays:
[1] = molecular target: MMP-2 targeting peptide (FITC-AA-…); test: MST
bovine serum albumin = test: MicroScale Thermophoresis; assay type: binding; conditions: MST, FITC-labelled peptide

Kd [1] [nM] | nonspecific binding to bovine serum albumin (bovine serum albumin) | Compound
82.8 |  | recombinant human MMP-2 (from UniProt P08253 30-660) (enzyme)
 | does not bind nonspecifically | CC[C@H](C)[C@H](NC(=O)[C@H](CC(=O)O)NC(=O)[C@H](CC(C)C)NC(=O)[C@H](Cc1ccccc1)NC(=O)[C@H](CCC(=O)O)NC(=O)[C@H](CCC(N)=O)NC(=O)[C@H](CCCCN)NC(=O)[C@@H]1CCCN1C(=O)[C@H](C)NC(=O)[C@H](C)NC(=O)CNC(=O)[C@H](CCCNC(=N)N)NC(=O)[C@H](C)NC(=O)[C@H](C)NC(=S)Nc1ccc2c(c1)C(=O)OC21c2ccc(O)cc2Oc2cc(O)ccc21)C(=O)N[C@@H](CCC(=O)O)C(N)=O [MMP-2 targeting peptide] (HELM PEPTIDE1{[O=C1OC2(c3ccc(O)cc3Oc3cc(O)ccc32)c2ccc(NC(=S)[*:2])cc21].A.A.R.G.A.A.P.K.Q.E.F.L.D.I.E.[am]}$$$$V2.0)
